Key:
TopBP1 [1] = molecular target: TopBP1 (UniProt Q92547); test: TopBP1 antibody co-IP, E2 Western blot; conditions: reference: E2-WT; sites S23
TopBP1 [2] = molecular target: TopBP1 (UniProt Q92547); test: TopBP1 antibody co-IP, E2 Western blot; conditions: reference: E2-WT; sites S23; remark: listed apart in the source
[3] = molecular target: T1, GST TopBP1 (aa 32 to 1522) His (UniProt Q92547 32-1522); test: pull-down; conditions: both partners purified
T1 construct: also called GST-tagged TopBP1; recombinant GST-TopBP1 (full length); source: E. coli BL21(DE3), purified (Glutathione Sepharose 4B, size exclusion chromatography)

Row | Molecule | binding against the reference (TopBP1 [1]) | binding against the reference (TopBP1 [2]) | binding result [3]
1 | HPV16 E2 (from UniProt P03120) E2-S23A | weaker | weaker | 
2 | His-E2-S23D (amino acids 1 to 200) (domain or fragment, source: E. coli BL21(DE3), purified (Ni-NTA agarose, size exclusion chromatography)) METLCQRLNVCQDKILTHYENDDTDLRDHIDYWKHMRLECAIYYKAREMGFKHINHQVVPTLAVSKNKALQAIELQLTLETIYNSQYSNEKWTLQDVSLEVYLTAPTGCIKKHGYTVEVQFDGDICNTMHYTNWTHIYICEEASVTVVEGQVDYYGLYYVHEGIRTYFVQFKDDAEKYSKNKVWEVHAGGQVILCPTSVF |  |  | binds

— paper PMC8546539, “CK2 Phosphorylation of Human Papillomavirus 16 E2 on Serine 23 Promotes Interaction with TopBP1 and Is Critical for E2 Interaction with Mitotic Chromatin and the Viral Life Cycle” (mBio, 2021)
